The text below walks through data of patent US20140329995A1.

For assay [1], the target named is Gammanorm 165 mg/ml (Octapharma), human polyclonal IgG (human). Description: column breakthrough, ligand on agarose base matrix A, ligand density […], residence time 10.0 min, 1 mg/ml IgG.
Assay [2] has the same target. Description: column breakthrough, ligand on agarose base matrix A, ligand density […], residence time 2.4 min, 1 mg/ml IgG.
Assay [3] shares this target. Description: column breakthrough, ligand on agarose base matrix A, ligand density 14.5 mg/ml, residence time 6.0 min, 1 mg/ml IgG.
Assay [4] shares this target. Description: column breakthrough, ligand on agarose base matrix B, ligand density 11.3 mg/ml, residence time 2.4 min, 1 mg/ml IgG.
For assay [5] the target is unchanged. Kind of assay: column breakthrough, ligand on agarose base matrix A, ligand density […], residence time 6.0 min, 1 mg/ml IgG.
Assay [6] shares this target. Description: column breakthrough, ligand on agarose base matrix A, ligand density 14.5 mg/ml, residence time 10.0 min, 1 mg/ml IgG.
The target is the same in assay [7]. Kind of assay: column breakthrough, ligand on agarose base matrix B, ligand density 11.3 mg/ml, residence time 6.0 min, 1 mg/ml IgG.
For assay [8] the target is unchanged. Description: column breakthrough, ligand on agarose base matrix A, ligand density 14.5 mg/ml, residence time 2.4 min, 1 mg/ml IgG.

For “Mutant Z(N23T)6: ligand hexamer containing six copies of protein Z, each containing the N23T substitution (designed binder)”, the Qb10 (dynamic binding capacity at 10% breakthrough) was 64.5 mg/ml resin in assay [1]; 35.1 mg/ml resin in assay [2]; 61.8 mg/ml resin in assay [3]; 47 mg/ml resin in assay [4]; 53.4 mg/ml resin in assay [5]; 76.7 mg/ml resin in assay [6]. For the same substance, the figures for the Qb10 (dynamic binding capacity at 10% breakthrough) in assay [7] and in assay [8] were 68 mg/ml resin and 31.2 mg/ml resin, respectively. In addition, the Qb80 (dynamic binding capacity at 80% breakthrough) in assay [1] came to 74.5 mg/ml resin; in assay [2], 62.7 mg/ml resin; in assay [3], 103 mg/ml resin; in assay [4] it was 76.9 mg/ml resin; in assay [5] it was 68.7 mg/ml resin; in assay [6], 103 mg/ml resin. Further, the Qb80 (dynamic binding capacity at 80% breakthrough) was found to be 82.8 mg/ml resin in assay [7] and 80.6 mg/ml resin in assay [8].
